Laboratory results: patent US20230374148A1, “BINDING MOLECULES THAT MULTIMERISE CD45” (UCB BIOPHARMA SRL, priority 2020, published 2023)

Columns and labels:
Human PBMC = assay: Apoptosis of PBMCs: reduction of PBMC cell subsets; format: cell-based; settings: 24 hrs; for Bottom level of % subset cell reduction / Top level of % subset cell reduction: donor UCB Cone-802
Description: Human PBMC derived from blood leukocyte platelet-apheresis cones (NHSBT Oxford) were banked as frozen aliquots. Prior to an assay being performed, 2 vials of frozen cells, each containing 5×10^7 cells in 1 ml, were thawed in a 37° C. water bath and then added to 50 ml complete media (RPMI 1640+2 mM GlutaMAX+1% Pen/Strep, all previous supplied by Invitrogen, +10% Fetal Bovine Serum (FBS), Sigma Aldrich). Cells were spun (500 g, 5 min, at RT) and re-suspended in 30 ml complete media to wash and spun again. Cells were resuspended in 10 ml complete media and then counted using a ChemoMetec NucleoCounter NC-3000. 10^5 cells per well in 100 μl were then added to each well of a Corning Costar 96-well, cell culture treated, U-shaped-bottom microplate (cat no. 07-200-95). The plate was rested in a 37° C., 5% CO2 incubator for 2 hrs. PBMCs from two donors, UCB-Cones 801 and 802 were used in this assay.
Similarly, a 1500 nM stock of 4133-6294 BYbe in complete media was prepared. The microplate was incubated for 1 hr at 37° C., 5% CO2. Following the incubation, Fab-KD-Fab and BYbe reagents were then serially diluted in complete media 1 in 5, nine times to produce to form a 10-point dose curve.
Following the incubation, the plate was spun at 500 g, 5 min, RT, the buffer was aspirated with a BioTek ELx405 microplate washer, and the cells were re-suspended in FACS buffer (PBS+1% bovine serum albumin (BSA)+0.1% NaN3+2 mM EDTA, Sigma Aldrich) to wash and then re-spun and buffer was aspirated to leave the cells in 20 μl residual media. 20 μl of cell-specific marker antibody cocktail solution was added to the wells and incubated for 1 hr at 4° C. The antibody cocktail is detailed in Table 4 below.
(§1) Cells were analysed live using the Intellicyt iQue Screener PLUS. Live cell counts were extracted as metrics and graphical representations generated using Graphpad Prism version 8.1 (Graphpad). Asymmetric (five parameter) curve fitting was applied to derive maximal % cell reduction and EC50 values.

Human whole blood = assay: Apoptosis of lymphocytes in whole blood; format: cell-based; settings: 5 hrs
Description: Human whole blood (Lithium heparin tubes) was taken from two donors (HTA #051119-01 & #051119-02) at UCB Pharma Slough, UK according to approved ethical sample collection protocol.
In a Greiner 96-well non-binding microplate, Fab-X and Fab-Y combinations 6294-X/4133-Y and NegCtrl-X/4133-Y, were added to PBS to give a Fab-KD-Fab concentration of 2750 nM. Similarly, a 2750 nM stock of 4133-6294 BYbe in PBS was prepared. The microplate was incubated for 1 hr at 37° C., 5% CO2. Following the incubation, Fab-KD-Fab and BYbe reagents were then serially diluted in PBS 1 in 5, nine times to produce to form a 10-point dose curve.
5 μl of each Fab-KD-Fab or BYbe dilution was added to Nunc™ 96-Well Polypropylene DeepWell™ plates (ThermoFisher). Then 50 μl of blood was added to each well, the plate gently mixed and sealed with a plate seal that allows gas exchange. These cells were then incubated for 5 hrs at 37° C., 5% CO2. Running the assay for a short time period avoids the need to add an anti-coagulant.
Following the incubation, 950 μl of BD Phosflow BD Lyse/Fix (cat no. BD558049, FisherScientific) was added to each well and the plate incubated at 37° C., 5% CO2 for 10 minutes. The plate was then spun at 500 g for 8 min, at 4° C. The buffer was aspirated and 1 ml of FACS buffer (PBS+1% bovine serum albumin (BSA)+0.1% NaN3+2 mM EDTA, Sigma Aldrich) added to wash cells using an Integra Viaflo 96 channel pipette. The plate was spun at 500 g for 8 min, at 4° C. As before, the buffer was aspirated and 1 ml of FACS buffer added to wash cells. This was followed by a slower spin at 250 g for 10 min, at 4° C. Again, buffer was aspirated and 1 ml of FACS buffer added to wash cells.
The plate was re-spun at 500 g for 8 min, at 4° C. Buffer was aspirated leaving the cells in a minimal residual volume for cell-specific antibody staining. 20 μl of cell-specific antibody cocktail (shown in Table 7 below) was added to the wells and the plate incubated for 1 hr at 4° C.
as §1, with “Following the incubation with the antibody cocktail, cells were washed twice as outlined above and buffer aspirated to leave the cells in 20 μl residual buffer. 20 μl of FACS buffer was then added to samples to dilute the cells. Cells” for “Cells”

B1: 4133-6294 BYbe: anti-CD45 BYbe (Fab-scFv): 4133 Fab HC-G4S linker-6294 scFv heavy chain paired with 4133 light chain (antibody)
heavy: QEQLVESGGGLVQPEGSLTLTCTASGFSFSGNYYMCWVRQAPGKGLEWIGCLYTGSSGSTYYASWAKGRFTISKTSSTTVTLQMTSLTAADTATYFCARDLGYEIDGYGGLWGQGTLVTVSSGQPKAPSVFPLAPCCGDTPSSTVTLGCLVKGYLPEPVTVTWNSGTLTNGVRTFPSVRQSSGLYSLSSVVSVTSSSQPVTCNVAHPATNTKVDKTVAPSTCSKPGGGGSGGGGSEVQLVESGAELARPGASVKMSCKASGYTFTSYTMHWVKQRPGQCLEWIGYINPSSGYTEYNQKFKDKTTLTADKSSSTAYLQLSSLTSEDSAVYYCARVGDGFYPSWLAYWGQGTLVTVSSGGGGSGGGGSGGGGSGGGGSDIQMTQSPKFLLVSAGDRVTITCKASQSVRNDVAWYQQKPGQSPKLLIFYASKRYTGVPDRFTGSGYGTDFTFTISTVQAEDLAVYFCQQDYSSPTTFGCGTKLEIK
light: AQVLTQTPSPVSAVVGGTVSISCQASQSVYNNNNLSWYQQKPGQPPKLLIYDASKLASGVPSRFKGSGSGTQFTLTISGVQCDDAATYYCLGGYYSSGWYFAFGGGTKVVVKRTPVAPTVLIFPPAADQVATGTVTIVCVANKYFPDVTVTWEVDGTTQTTGIENSKTPQNSADCTYNLSSTLTLTSTQYNSHKEYTCKVTQGTTSVVQSFNRGDC
With B1 the “almost maximal reductions in B cells” value (Human PBMC; B cells in PBMC, stated for both reagents) was 87%, the “Bottom level of % subset cell reduction” value (Human PBMC; B cells) was 18.74% and the “Top level of % subset cell reduction” value (Human PBMC; B cells) was 87.09%. The “Bottom level of % subset cell reduction” value (Human PBMC; CD4+ Memory) was 24%, the “Top level of % subset cell reduction” value (Human PBMC; CD4+ Memory) was 99.76% and the “Bottom level of % subset cell reduction” value (Human PBMC; CD4+ Naive) was 18.53%. For the same molecule, the “Top level of % subset cell reduction” value (Human PBMC; CD4+ Naive) was 99.04%, the “Bottom level of % subset cell reduction” value (Human PBMC; CD4+) was 20.22% and the “Top level of % subset cell reduction” value (Human PBMC; CD4+) was 99.2%. For the same molecule, the “Bottom level of % subset cell reduction” value (Human PBMC; CD8+) was 0.543%, the “Top level of % subset cell reduction” value (Human PBMC; CD8+) was 98.36% and the Max % reduction (Human whole blood; CD4+, Donor 1, whole blood) was 50%. The Max % reduction (Human whole blood; CD4+, Donor 2, whole blood) was 54%, the Max % reduction (Human whole blood; Total lymphocytes, Donor 1, whole blood) was 34% and the Max % reduction (Human whole blood; Total lymphocytes, Donor 2, whole blood) was 44%.
